According to patent US20230051701A1 (Bristol-Myers Squibb, published 2023):
Substitutions are numbered along the chain they refer to. Where “and” joins values, the source holds several entries; their conditions need not be identical. Equal entries are not always repeated.

What was measured:
[1] = biological target: T1, rhCD73 bound to his-tag magnet beads (human, UniProt P21589 27-549, limits assumed); experiment: cell-based or functional assay
T1 sequence: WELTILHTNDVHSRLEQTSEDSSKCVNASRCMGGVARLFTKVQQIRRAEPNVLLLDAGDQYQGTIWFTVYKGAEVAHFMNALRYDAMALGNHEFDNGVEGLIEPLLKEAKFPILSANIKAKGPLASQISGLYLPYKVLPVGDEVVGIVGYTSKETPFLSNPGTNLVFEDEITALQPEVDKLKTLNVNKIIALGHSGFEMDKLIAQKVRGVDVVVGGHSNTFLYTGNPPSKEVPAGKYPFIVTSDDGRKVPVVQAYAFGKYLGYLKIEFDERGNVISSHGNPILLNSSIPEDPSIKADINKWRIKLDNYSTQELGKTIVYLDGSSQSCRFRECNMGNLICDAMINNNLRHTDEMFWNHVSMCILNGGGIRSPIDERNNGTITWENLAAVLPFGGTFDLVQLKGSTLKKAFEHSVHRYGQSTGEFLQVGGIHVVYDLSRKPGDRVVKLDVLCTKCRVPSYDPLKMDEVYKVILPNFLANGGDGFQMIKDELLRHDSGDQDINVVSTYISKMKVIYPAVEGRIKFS

[2] = biological target: T2, human CD73 on cells (Calu6, NCI-H292, SK-MEL-24, human tumor cell lines, human B and T cells) (human, UniProt P21589 27-549); experiment: cell-based or functional assay
T2 sequence: T1 sequence

[3] = biological target: T2, human CD73 on cells (Calu6, NCI-H292, …); experiment: cell-based or functional assay; remark: listed apart in the source
[4] = biological target: T2, human CD73 on cells (Calu6, NCI-H292, …); experiment: cell-based or functional assay; remark: listed apart in the source
[5] = biological target: T3, N-terminal domain of hCD73 (residues 26-336 of human CD73), His-tagged (human, UniProt P21589 26-336); experiment: SPR, mAb captured on protein A
T3 construct: also called N-hCD73; N-hCD73-his
T3 sequence: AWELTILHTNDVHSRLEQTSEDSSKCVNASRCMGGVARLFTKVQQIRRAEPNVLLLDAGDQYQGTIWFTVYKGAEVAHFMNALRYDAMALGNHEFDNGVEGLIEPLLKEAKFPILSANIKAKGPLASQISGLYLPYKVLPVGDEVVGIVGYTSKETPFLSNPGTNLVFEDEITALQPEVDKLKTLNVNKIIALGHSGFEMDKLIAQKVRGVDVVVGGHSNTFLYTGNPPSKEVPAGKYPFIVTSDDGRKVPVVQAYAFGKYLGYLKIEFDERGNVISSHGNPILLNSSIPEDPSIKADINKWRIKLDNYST
Procedure: For these experiments, protein A (Pierce) was immobilized to a density of 3000 — 4000 RU on flow cells 1-4 of a CM5 sensor chip (GE Healthcare) using standard ethyl(dimethylaminopropyl) carbodiimide (EDC)/N-hydroxysuccinimide (NHS) chemistry, with ethanolamine blocking, in a running buffer of 0.01 M HEPES pH 7.4, 0.15 M NaCl, 3 mM EDTA, 0.005% v/v tween 20. […] The running buffer for the kinetic experiments was 10 mM sodium phosphate, 130 mM sodium chloride, 0.05% tween 20, pH 7.1. The surfaces were regenerated after each cycle using two 30 s pulses of 10 mM glycine pH 1.5 at a flow rate of 30 μl/min. Sensogram data was double-referenced and then fitted to a 1:1 Langmuir model using Biacore T100 evaluation software v2.0.4, to determine the association rate constant (ka), the dissociation rate constant (kd), and the equilibrium dissociation constant (KD).

[6] = biological target: T4, cynomolgus CD73 on transfected CHO cells (cynomolgus, UniProt P21589 27-549 (human entry)); experiment: flow cytometry, CHO-cynoCD73 cells
T4 construct: also called CHO-cynoCD73; cyno CD73 positive CHO cells
T4 chain: T1 sequence with M199T, T350A, V466I
Procedure: Titration binding curves were produced with CD73 antibodies on Calu6 (CD73 endogenous expressors; human pulmonary adenocarcinoma cell line), DMS114 (CD73 negative; human small cell lung cancer cell line), CHO-cynoCD73 (cynoCD73-transfected) and CHO-K1 (cynoCD73 negative), cells using Alexa Fluor® 647 Goat Anti-Human IgG (H+L) as a secondary antibody, Invitrogen Cat#A-21445, using the following method: 100000 cells were plated in 100 uL PBS+2% FBS per well and blocked for 20 min. Using a U-bottom 96-deep well plate, volumes of antibody and PBS+2% FBS were combined as dictated by Table 12 below.
An 8-point serial dilution was performed by diluting a sixth of the volume (90 uL) into 450 μL PBS+2% FBS. The cell plate was spun down for 5 minutes at 1500 rpm. 100 uL of diluted antibody was added per well of the plate. 100 uL PBS+2% FBS were added to all other wells. […] The plates were spun down at 1500 rpm for 5 min and washed in 200 uL PBS +2% FBS per well. The plates were washed again, resuspended in 200 uL 2% FBS in PBS per well and the samples were run.

[7] = biological target: T4, cynomolgus CD73 on transfected CHO cells; experiment: flow cytometry, CHO-cynoCD73 cells, anti-human IgG secondary; column 'Kd (ng/mL)'
[8] = biological target: T2, human CD73 on cells (Calu6, NCI-H292, …); experiment: flow cytometry, Calu6 cells, anti-human IgG secondary (unstained -8.27, sec only 30.3)
[9] = biological target: T4, cynomolgus CD73 on transfected CHO cells; experiment: flow cytometry, CHO-cynoCD73 cells, anti-human IgG secondary (unstained 4.81, sec only 18.5)

B1: 11F11 (antibody, human IgG2, kappa, V domains shown)
VH: QVQLVESGGGVVQPGRSLRLSCATSGFTFSNYGMHWVRQAPGKGLEWVAVILYDGSNKYYPDSVKGRFTISRDNSKNTLYLQMNSLRAEDTAVYYCARGGSSWYPDSFDIWGQGTMVTVSS
VL: DIQMTQSPSSLSASVGDRVTITCRASQGISSWLAWYQQKPEKAPKSLIYAASSLQSGVPSRFSGSGSGTDFTLTISSLQPEDFATYYCQQYNSYPLTFGGGTKVEIKR
notes: Human IgG2 from hybridoma
EC50 (nM), inhibition of bead-bound rhCD73 enzymatic activity [1]: 3.98 nM | EC50 Calu6 inhibition [2]: 700 pM | EC50 SKMEL24 inhibition [2]: 3150 pM | Ymax, cAMP HTRF assay [3]: 76 % of 100 nM 11F11 | EC50 (nM), CD73 internalization, Calu6, 2 h [4]: 0.58 nM | Ymax, CD73 internalization, Calu6, 2 h [4]: 98 % of 100 nM 11F11 | Kd [5]: 1600 pM and 560 pM | EC50 [6]: 580 pM | Kd [7]: 0.0207 µg/mL | MFI at 0.07 ng/mL antibody [8]: 788 | MFI at 0.43 ng/mL antibody [8]: 1290 | MFI at 2.57 ng/mL antibody [8]: 2250 | MFI at 15.43 ng/mL antibody [8]: 4830 | MFI at 92.59 ng/mL antibody [8]: 12100 | MFI at 555.56 ng/mL antibody [8]: 27400 | MFI at 3333.33 ng/mL antibody [8]: 29700 | MFI at 20000 ng/mL antibody [8]: 36600 | MFI at 0.07 ng/mL antibody [9]: 200 | MFI at 0.43 ng/mL antibody [9]: 342 | MFI at 2.57 ng/mL antibody [9]: 670 | MFI at 15.43 ng/mL antibody [9]: 1150 | MFI at 92.59 ng/mL antibody [9]: 1470 | MFI at 555.56 ng/mL antibody [9]: 1640 | MFI at 3333.33 ng/mL antibody [9]: 1990 | MFI at 20000 ng/mL antibody [9]: 2660
